According to the nanobody polyreactivity screen of Harvey et al. (2022):

Assay: yeast display, Sf9 membrane polyspecificity reagent, FACS + sequencing; frameworks hold sequencing errors
Method in brief: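 Galactose induction of a Saccharomyces cerevisiae BJ5465 synthetic nanobody display library ran 36–48 hours. The cells were then stained for 1 hour at 4 °C with 10% biotinylated, detergent-solubilized Sf9 membrane reagent, pulled down on streptavidin microbeads and FACS-sorted into low and high (top ~1%) gates on expression and reagent-binding fluorescence. Labels for polyreactivity follow the gate of origin.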

With “QVQLVESGGGLVQEGGSLRLSCAASGSIFFYYAMGWYRQAPGKERELVAAITSSGDSTYYADSVKGRFTISRDNAKNTVYLQMNSLKPVETAVYYCAALYIGYTGYYYWGQGTQVTVSS” the “polyreactivity (PSR sort gate)” value was “low polyreactivity”.

In the case of “QVQLEESWGVLVQAGCSLRISCAASGRIFAYNAMGSYRQAPGKERELVAAISWRVGSTYYADSVKGRFSISRDNAKNTVYLQMNILKPEDTAVYYCAVGYYRFGRVLGYYWGQGTQVSVSS”, the “polyreactivity (PSR sort gate)” value is reported as “high polyreactivity”.

With “QDQLGESGGGLVQAGGSLRLSCAASGYIFGTYAMGWYRQATGKERELVAAISVGGGSTYYADSVKGRFTISRDNAKHTVYLQMNSLKPEDTAVYYCAAVQLYQKHQITYVAHEYWGQGTQVTVSS” the “polyreactivity (PSR sort gate)” value was “low polyreactivity”.

For “QVQLVESGGGLVQAGGSLRLSCAASGSTFLAYTMGWYRQAPEKERELVADNTSNGGSTYYADSVKGRFTISRDNAKNTVYLQMNSLKPEDTAVYYCNTGSGAGITRPDDDFNYWGQGTQVTVSS”, the “polyreactivity (PSR sort gate)” value was “low polyreactivity”.

With “QVQLVESGGGLVQAGCSLRLSCAASGSTFRYYPMGWYRQAPGKEREFVAAITWRDGSTYYADSVKGRFTISRDNAKNTVYLQMNSLKPEDTAVYYCAARNSHVGYYDEYYYWGQGTQVTVSS” the “polyreactivity (PSR sort gate)” value was “low polyreactivity”.

In the case of “QVQLVESGGGLVQAGCSLRLSCAASGRIFSRYTMGWSRQAPGKERELVAAISSGGSTYYADSVKGRFTISLDNAKNTVYFQMNSLKPEDTAVYYCNTRYVGQRSTWVDQVRRYDYCGQGTQVTVSS”, the “polyreactivity (PSR sort gate)” value is reported as “high polyreactivity”.

With “QVQLVESGGGLVQAGGSLRLSCAASGRTYGYAMGWYTQAPGIERELVARINRTTGSTYYADSVKGRFTISRDNAKNTVYLQMNSLKPQDTAVYYCAKSSYSRALKLYYWGQGSQVTVSS” the “polyreactivity (PSR sort gate)” value was “high polyreactivity”.

For “QDQLVESGGGLVQPGGSLRLSCAASGITFYYYTMGWYRQAPGKERELVAGITRGGRTYYADSVKGRFTISRDNAKNTVYLQMNSLKPVDSAVYYCNADPWWRFDYWGQGTQVTVSS”, the “polyreactivity (PSR sort gate)” value was “low polyreactivity”.

With “QVQLVESGGGLVQAGGSLRLSCAASGFTFYRYAMGWYRQAPGKERELVAALSGSGGSTYYADSVKGPFTISRDNAKTTVYLQMNSLNPEDTAVYYCNTVWFYGAKYDYWGQGTQVTVSS” the “polyreactivity (PSR sort gate)” value was “high polyreactivity”.

With “QVQLVESGGGLVQAGGSLRLSCAASGIIFRFYSMGWYRQAPGKERELLAVITSRSDSTYYADSVKGRFTISRDNAKNTVYLQMNSLKPEDTAVYYCNARYPWYYRYSTYDYWGQGTQVTVSS” the “polyreactivity (PSR sort gate)” value was “high polyreactivity”.

With “QVQLVESGGGLVQAGGSLRLSCAASGSTFGRYVMGWYRQAPGKERELVAAISYSGGRTYYADSVKGRFTISRDNAKNTVYLQMNSLKPEDTAVYYCNKGGIREYDYWGQGTQVTVSS” the “polyreactivity (PSR sort gate)” value was “high polyreactivity”.

In the case of “QVQLVESGGGLVQAGGSLRLSCAASGLTFAYYAMGWYRQAPGKERELVAAISLSGGSTYYADSVKGRFTISRDNAKNTVYLQMNSLKPEDTAVYYCNKGSYYWWDPGSTYIDDYWGQGTQVTVSS”, the “polyreactivity (PSR sort gate)” value is reported as “low polyreactivity”.

In the case of “QVQLVESGGGLVQAGASLRLSCAASGSTFLRNAMGWYRQAPGKKGSWVATISYDGDSTYYADSVKGRFTISRDNTKNTVYLQMNSLKPEDPAVYYCAASYSLTFWDKDDYWGQGTQVSVSS”, the “polyreactivity (PSR sort gate)” value is reported as “low polyreactivity”.

With “QVQLVESGGGLVQAGGSLRISCAASGSTFRYYAMGWYKQAPGKERELVAAITTSGGRTYYADSVKGRFTISRDNAKNTVYLQMNSLKPEDTAVYYCAIRYSTPYLTDNFLSGPGYYYWGQGSQVTVSS” the “polyreactivity (PSR sort gate)” value was “high polyreactivity”.

For “QVQLVESGGGLVQAGGSLRLSCAASGSIFFPYAMGWYRQAPGKERELVAASTRSGGRTYYADSVKGRFTISRDNAKNTVYLQMNSLKPEDTAVYYCAAGPWYKFYDWRPWFSYDYWGQGTQVTVSS”, the “polyreactivity (PSR sort gate)” value was “low polyreactivity”.

For “QVQLVESGGGLVQAGGSLRLSCAASGIIFQYYAMGGYRQAPGKERELVAAISWSGGSTYYADSVKGRFTISRDNAKNTVYLQMNSLKPEDTAVYYCAARSRSFWPYEGDYWGQGTQVTVSS”, the “polyreactivity (PSR sort gate)” value was “low polyreactivity”.

With “QVQLVESGGGLVQAGGSLRLSCAASGSIFVSYAMGWYRQAPGKERELVAAITGRTGSTYYADSVKGRFTISRDNAKNTVYLQMNSLKPEDTAVYYCAARHKQHNRYDYWGHGTQVTVSS” the “polyreactivity (PSR sort gate)” value was “low polyreactivity”.

For “QVQLLESGGGLVQAGGSLRLSCAASGSIFGYYAMGWYRQAPGKERELVAAISVNGGRTYYADSVKWRFTISRDIAKNTVYLQMNMLKPEDTAVSYCAAELVDFITFRGDFYYWGQGTEVTVSS”, the “polyreactivity (PSR sort gate)” value was “high polyreactivity”.

In the case of “QVLLVESGGGLVQAGGSLRLSCAASGGTFLFYGMGWYRQAPGKERELVAVITWSGGSTYYADSVKGRFTISRDNAKNTVNLQMNSLKPEDTAVYYCNAANTGSPDYQSIGYNFNYWGQGTQVTVSS”, the “polyreactivity (PSR sort gate)” value is reported as “low polyreactivity”.

For “QVQLVESGGGLVQAGGSLRLSCAASGFTFAYYAMGWYRQAPGKERELVAAISERGGSTYYADSVKGRFTISRDNAKNTVYLQMNSLKPEDTAVYYCARTFWDYPWYQSSYYSWGQGTQVTVSS”, the “polyreactivity (PSR sort gate)” value was “low polyreactivity”.

In the case of “QVQLVESRAGLVQEGGSLRVSCAASGNILGTYAMGWYRQAPGKERELVAAISSSVGSTYYADSVKARFTISRDNAKNTVYLQINSLKPEDTAVYYCAPQPRVDYEFPYRYGYWGQGSQVTVSS”, the “polyreactivity (PSR sort gate)” value is reported as “low polyreactivity”.

With “QVQLVESGGGLVQAGGSLRLSCAASGSIFGVNDMGWYRQAPGKERELVAGISSSGGSTYDADSVMGRFTISRDNAKNTVYLQMNSLKPEDTAVYYCAARKLYRPRGRRVGYWGQGTQVTVSS” the “polyreactivity (PSR sort gate)” value was “low polyreactivity”.

With “QVQLVESAGGLVQAGGSLRLSCAASGFTFTYYVMGWYRQAPGKERELVAAISSGGSTYYADSVKGRFTISRDNAKNTVYLQMNSLKPEDTAVYYCAKGSGYYYRYGYWGQGTQVTVSS” the “polyreactivity (PSR sort gate)” value was “high polyreactivity”.

For “QVQLVESGGGLVQAGGSLRLTCAASGRTFNDYAMGWYRQAPGKEMELVAGITWRGGSTYYADSVKGRFTISRHNAKNTVYLQMNSLKPEDTAVYYCAVKRPWRKMGYWGQGTQVTVSS”, the “polyreactivity (PSR sort gate)” value was “high polyreactivity”.

In the case of “QVQLVESGGGLVQAGGSLRLSCAASGYTFIVNAMGWYRQAPGKERELVAAITSGGGTYYADSVKGRFTISRDNAKNTVYLQMNCLKPEDTAVYYCAARSGYRYVESDYWGQGTQVTVSS”, the “polyreactivity (PSR sort gate)” value is reported as “high polyreactivity”.

In the case of “QVQLVESGGGLVQAGGSLSLSCAASGRTFKRYAMGWYRQAPGKERELVAAITSSGTSTYADSVKGRFTISRDNAKNTVYFQMNSLKPEDTAVYYCNRGYFNSRTPTFDYWGQGTQVTVSS”, the “polyreactivity (PSR sort gate)” value is reported as “low polyreactivity”.

For “QFQLVESGGGLVQAGGSLRLSCAASGITFFPYAMGWYRQAPGKERELVASISDGGGTNYADSVKGRFTISRDNAKNTVYLQMNSLKPEDTAVYYCATDASTYAYYGGDYWGQGTQVTVSS”, the “polyreactivity (PSR sort gate)” value was “low polyreactivity”.

In the case of “QVQLVESGGGLVQAGGSLRLSCAASGSTFRYYAMGWYRQAPGKERELVAAITSSGGSTYYADSVKGRFTISRDNAKNTVYLQMNSLKPEDTAVYYCAVAVKNWVKLNYWGQGTQVTVSS”, the “polyreactivity (PSR sort gate)” value is reported as “high polyreactivity”.

With “QVQLVESGGGLVQAGGSLRLSCAASGFTFGNYVMGWYRQAPGKERELVAAISKRGTSTYYADSVKGRFTISRDNAKNTVYLQMNSLKPEDTAVYYCAADGVYSHKDGLWGQGTQVTVSS” the “polyreactivity (PSR sort gate)” value was “high polyreactivity”.

For “QVQLVESGGGLVQAGGTLRLSCAASGNTFRYYAMGWYRQSPGKERELVARITGRAGSTYYADSVKGRFTISRDNAKKTVYLQMNSLKPEDTAVYYCAAEFYYGFDYWGQGTQVTVSS”, the “polyreactivity (PSR sort gate)” value was “high polyreactivity”.

With “QVQLVESGAGLVQAGGSLRLCCAASGSTFTKNAMGLYRQAPGKERELVAAISWRDGSTYYADSVKGRFTISRDNAKNTVYLQMNSLKPEDTAVYYCNAVRRSFGKYPGLLDYDYWGQGTQVTVSS” the “polyreactivity (PSR sort gate)” value was “high polyreactivity”.

With “QVQLVESGGGLVQAGGSLRFSCAASGGTFWYYAMGWYRQAPGKERELDASISRGGSTNYADSVKGRFTISRDNAKNTVYLQMNSLKPEDTAVYYCIAGLRVGPRRYVDYEYDYWGQGTQVTVSS” the “polyreactivity (PSR sort gate)” value was “low polyreactivity”.

With “QVQLVESGGGLVQAGGSLRLSCAASGFTFNFYTMGWYRQAPGKERELVAAITWSGGSTYYADSVKGRFTISRDNAKNTVYLQLNSLKPEDTAVYYCAATQQSRDRRFNYWGQGTQVTVSS” the “polyreactivity (PSR sort gate)” value was “high polyreactivity”.

With “QVHLVESGGGLVQAGGSLRLSCASSGTTFRYYAMGCYRQAPGKERELVAAITYRGGRTYYADSVKGRFTISRDNPKNTVYLQMNSLKPEDTAVYYCAGKSGGDSMDSWGQGTQVTVSS” the “polyreactivity (PSR sort gate)” value was “low polyreactivity”.

In the case of “QVQHVESGGGLVQAGGSLRLSCAASGRTFNYYAMGWYRQAPGKERELVAAISSSGGRTYYADSVKGRFTISRDNAKNTVYLQMNSLKPEDTAVYYCAADSFYYRPEYDYWGQGTQVTVSS”, the “polyreactivity (PSR sort gate)” value is reported as “low polyreactivity”.

For “QVQLVESGGGLVQAGGSLRLSCAASGSIFYYYAMGWYRQAPGKERELVAAITSGGSTYYADSVKGRFTISRDNAKNTVYLQMNSLKPEDTAVYYCAAYGYYRGYPFHWYDYWGQGTQVTVSS”, the “polyreactivity (PSR sort gate)” value was “high polyreactivity”.

For “QVQLEESGGGLVQAGGSLRLSCAGSGFISNGYALGWYRQAPGKEREFVASISSTGGRTYYADSVKGRFTISRDNAKNTVYLLMNSLKPEDTSVYYCAKDPQPRYWVDYWGQGTQVTVSS”, the “polyreactivity (PSR sort gate)” value was “low polyreactivity”.

In the case of “QVQLVESGGGLVQAGGSLRLSCAASGYPFGYYGKGWYRQAPGKERELVAAISRSGGGSTYYADSVKGRFTISRENAKYTVYLQINSLKPEDTAVYYCNVSPGVWRSIPLYYNLRYGYWGQGTQVTVSS”, the “polyreactivity (PSR sort gate)” value is reported as “low polyreactivity”.

In the case of “QVQLVESGGGLVQAGGSLRLSCAASGFTFYKYAMGWYRQAPGKEREFVAAISSSGDSTYYADSVKGRFTISRDNAKNTVYLQMNSLKPEDTAVYYCAARRRGTSTTWGQGTQVTVSS”, the “polyreactivity (PSR sort gate)” value is reported as “high polyreactivity”.

In the case of “QVHHVESGGGLVQAGGTLRLSCSASGSTFWANAMGWYRQQPGKEWEFVARITYSCGSTYYADSVKGRFTISRDNAKNTVYLQMNSLIREDTAVYYCAAELPGKLVYWGQGSQVTVSS”, the “polyreactivity (PSR sort gate)” value is reported as “low polyreactivity”.

With “QVQLVESGGGLVQAGGSLRLSCAASGSIIWRNTMGWYRQAPGKESELVARITGRGGRTNYADSVKGRFTISRDNAKNTVYLQMNSLKPEDTAVYYCAAAYPSVAYSYRYDYWGQGTQVTVSS” the “polyreactivity (PSR sort gate)” value was “high polyreactivity”.

With “QLQLVESGGGLVQAGGSLRLICAASGLTFVHYTMGWYRQAPGKERELVAAISWNGASTYYADSVKGRFTISRDNAKNTVDIQMNSLKPEDTAVYYCAAGYAQPRYYTDYYWGEGTQVTVSS” the “polyreactivity (PSR sort gate)” value was “high polyreactivity”.

With “QVQLVESGGGLVQAGGSLRLSCAASGTTFVSYSMGWYRQAPGKEREFVATISISGTSTYYADSVKGRFTISRDNAKNTVYLQMISLKPEDTAVYYCAARLRRRGATQFYRYDYWGQGTQVTVSS” the “polyreactivity (PSR sort gate)” value was “high polyreactivity”.
